Assays:
[1] = tested on: wild type CT26 cells; assay: RNA-seq gene expression (TPM) of wild type CT26 cells cultured with or without IFNγ; format: cell-based; conditions: 20 ng/mL mouse IFNγ, 24 hours, vs without IFNγ
Procedure: (§1) Three distinct vials of parental CT26 cells (ATCC; “experimental replicates”), two independently isolated tumors from “2nd round” mice, four independently isolated tumors from “4th round” mice (both “biological replicates”) were cultured with or without 20 ng/mL of mouse IFNγ (Biolegend) for 24 hours at […]. The following day, RNA was isolated from cells using Qiagen RNeasy reagents according to manufacturer's instructions, including QIASHREDDER homogenization and on-column DNaseI digestion. Isolated RNA was subjected to RNA-seq and data analysis. Briefly, sequencing libraries were generated and sequenced on an ILLUMINA HISEQ (2×150 paired end reads), targeting >20×10^6 reads per sample. Sequences were trimmed using TRIMMOMATIC v.0.36 and mapped to the Mus musculus GRCm38 reference genome using the STAR ALIGNER v.2.5.2b. Unique gene hit counts were calculated by using FEATURECOUNTS from the SUBREAD package v.1.5.2. Only unique reads that fell within exon regions were counted. Differential gene expression was determined using DESeq2, and the Wald test was used to generate p-values and log 2 fold changes; with log 2 fold change >1 and adjusted p-values <0.05 as cutoffs for significance.
Next, the effect of IFNγ on the expression of certain genes that are differentially expressed in the 4th generation anti-PD-1 resistant cells compared to the wild type CT26 cells was studied. Briefly, the parental CT26 cells, second generation anti-PD-1 resistant cells and 4th generation anti-PD-1 resistant cells were cultured with or without 20 ng/mL of mouse IFNγ (Biolegend) for 24 hours at 37° C./[…]. The following day, RNA was isolated from cells using Qiagen RNeasy reagents according to manufacturer's instructions, including QIASHREDDER homogenization and on-column DNaseI digestion. Isolated RNA was subjected to RNA-seq and data analysis. Briefly, sequencing libraries were generated and sequenced on an ILLUMINA HISEQ (2×150 paired end reads), targeting >20×10^6 reads per sample. Sequences were trimmed using TRIMMOMATIC v.0.36 and mapped to the Mus musculus GRCm38 reference genome using the STAR ALIGNER v.2.5.2b. Unique gene hit counts were calculated by using FEATURECOUNTS from the SUBREAD package v.1.5.2. Only unique reads that fell within exon regions were counted. Differential gene expression was determined using DESeq2, and the Wald test was used to generate p-values and log 2 fold changes; with log 2 fold change >1 and adjusted p-values <0.05 as cutoffs for significance.

[2] = tested on: 4th generation anti-PD-1 resistant cells; assay: RNA-seq gene expression (TPM) of 4th generation anti-PD-1 resistant CT26 cells cultured with or without IFNγ; format: cell-based, Mus musculus
Procedure: as §1
Next the transcriptomic profile of the 2nd and 4th generation anti-PD-1 resistant cell lines was studied by comparison with each other and with an anti-PD-1 primarily resistant cell line. The B16.F10 murine melanoma tumor cell line was used as a model of anti-PD-1 “primary resistance,” as these tumors are not responsive to anti-PD-1 therapy. Three distinct vials of parental CT26 cells (ATCC; “experimental replicates”), two independently isolated tumors from “2nd round” mice, four independently isolated tumors from “4th round” mice (both “biological replicates”), and two distinct vials of parental B16.F10 cells (ATCC; “experimental replicates were cultured with or without 20 ng/mL of mouse IFNγ (Biolegend) for 24 hours at 37° C./5% CO2 to assess in vitro responsiveness. This mimics how tumor cells respond in vivo, as immune cell infiltrate and secrete effector cytokines like IFNγ. The following day, RNA was isolated from cells using Qiagen RNeasy reagents according to manufacturers instructions, including QIASHREDDER homogenization and on-column DNaseI digestion. Isolated RNA was subjected to RNA-seq and data analysis. Briefly, sequencing libraries were generated and sequenced on an ILLUMINA HISEQ (2×150 paired end reads), targeting >20×10^6 reads per sample. Sequences were trimmed using TRIMMOMATIC v.0.36 and mapped to the Mus musculus GRCm38 reference genome using the STAR ALIGNER v.2.5.2b. Unique gene hit counts were calculated by using FEATURECOUNTS from the SUBREAD package v.1.5.2. Only unique reads that fell within exon regions were counted. Differential gene expression was determined using DESeq2, and the Wald test was used to generate p-values and log 2 fold changes; with log 2 fold change >1 and adjusted p-values <0.05 as cutoffs for significance. The DEGs were identified between untreated and IFNγ treated parental CT26. As shown in FIG. 4A (Left Panel), Log 2 fold-change was plotted in the heatmap and genes are hierarchical clustered based on parental CT26. Of these, 338 genes had usable data from the other datasets; and those values are shown in the other columns (FIG. 4A (Left Panel)). Genes separated into 3 major clusters (FIG. 4A (Left Panel)). Associated genes were input into PANTHER to identify pathways associated with the dysregulated genes and the GO pathways associated with the DEGs were identified. As shown in FIG. 4A (Right Panel), the upregulation of expression of the genes associated with following GO pathways was enriched in 2nd generation cells and 4th generation cells compared to both parental CT26 cells and B16.F10 cells: L-phenyl alanine catabolic process, phospholipid efflux, tyrosine catabolic process, positive regulation of transcription from RNA polymerase II promoter in response to acidic pH, and drug export. […]

B1: IFNγ: mouse IFNγ (Biolegend), cytokine added to cell cultures at 20 ng/mL for 24 hours (protein, UniProt P01580 23-155, looked up)
Interferon gamma: HGTVIESLESLNNYFNSSGIDVEEKSLFLDIWRNWQKDGDMKILQSQIISFYLRLFEVLKDNQAISNNISVIESHLITTFFSNSKAKKDAFMSIAKFEVNNPQVQRQAFNELIRVVHQLLPESSLRKRKRSRC
repressed: expression of CD274 ([2]; in the presence of IFNγ (20 ng/mL, 24 hours), FIG. 5A) | expression of B2m ([2]; in the presence of IFNγ (20 ng/mL, 24 hours), FIG. 5B) | expression of Stat1 ([2]; in the presence of IFNγ (20 ng/mL, 24 hours), FIG. 7A) | expression of Stat2 ([2]; in the presence of IFNγ (20 ng/mL, 24 hours), FIG. 7B) | expression of Irf1 ([2]; in the presence of IFNγ (20 ng/mL, 24 hours), FIG. 7C) | expression of Tap1 ([2]; in the presence of IFNγ (20 ng/mL, 24 hours), FIG. 7D) | expression of Ccl5 (RANTES) ([2]; in the presence of IFNγ (20 ng/mL, 24 hours), FIG. 9A) | expression of Cxcl10 (IP-10) ([2]; in the presence of IFNγ (20 ng/mL, 24 hours), FIG. 9B) | expression of Ifnb1 ([2]; in the presence of IFNγ (20 ng/mL, 24 hours), FIG. 9C)
overexpressed: expression of Trim7 ([2]; in response to IFNγ (20 ng/mL, 24 hours), FIG. 5C) | expression of Lrg1 ([2]; in response to IFNγ (20 ng/mL, 24 hours), FIG. 5D)
downregulate: expression of type I and type II interferon genes (baseline hyperactivated) ([2]; CT26 anti-PD-1 resistant cells challenged with IFNγ (20 ng/mL, 24 hours), FIG. 4B)
increased: expression of Cd274 (PD-L1) ([1]; FIG. 5A) | expression of B2M ([1]; FIG. 5B) | expression of Trim7 ([1]; FIG. 5C) | expression of Lrg1 ([1]; FIG. 5D) | expression of Stat1 ([1]; FIG. 7A) | expression of Stat2 ([1]; FIG. 7B) | expression of Irf1 ([1]; FIG. 7C) | expression of Tap1 ([1]; FIG. 7D) | expression of Ccl5 (RANTES) ([1]; FIG. 9A) | expression of Cxcl10 (IP-10) ([1]; FIG. 9B) | expression of Ifnb1 ([1]; FIG. 9C)

— patent US20240011101A1, “METHOD OF DETERMINING RESISTANCE TO CHECKPOINT INHIBITOR THERAPIES” (Shattuck Labs, Inc., priority 2020, published 2024)
